{
  "source": "patent US20220409725A1",
  "biological_target": "HER2 (UniProt P04626)",
  "assay": "SPR",
  "data": [
    {"substance": "4D5 Fab modified to contain Q39E in VH, Q38K in VL, S183K in the CH1, and V133E in the CL", "values": [
      {"measurement": "Kd", "value": 0.75, "unit": "nM"}
    ]}
  ]
}
